Assay results as given in patent publication US20040265963.

System: T1, Tkip (tyrosine kinase inhibitor peptide), WLVFFVIFYFFR
T1 sequence: WLVFFVIFYFFR

recombinant human Src
c-src tyrosine phosphorylation of a synthetic substrate peptide, in vitro kinase assay: Tkip at 50 µM failed to inhibit c-src phosphorylation of a protein substrate
